Where two headings read alike, the source gives them in different places. Values belong to the binder of their own block, whether it stands above or below them.
How the values were obtained:
[1] = target: T1, recombinant human TFPI (tissue factor pathway inhibitor) (human, UniProt P10646 29-304); test: cell-based or functional assay
[2] = target: T1, recombinant human TFPI (tissue factor …); test: cell-based or functional assay; remark: listed apart in the source
[3] = target: T1, recombinant human TFPI (tissue factor …); test: SPR, Biacore T-200; IgG captured on protein A (CM5), TFPI as analyte
Method: Dissociation of the TFPI associated with the antibody was induced by running 10 mM glycine-HCl (pH 1.5) at a flow rate for 30 seconds. The affinities in terms of kinetic rate constants (Kₒₙ and Koff) and equilibrium dissociation constant (KD) were evaluated using Biacore T-200 evaluation software, and the results are shown in Table 24 below.

[4] = target: T1, recombinant human TFPI (tissue factor …); test: cell-based or functional assay; remark: listed apart in the source
[5] = target: T1, recombinant human TFPI (tissue factor …); test: cell-based or functional assay; remark: listed apart in the source
[6] = target: T1, recombinant human TFPI (tissue factor …); test: SPR, Biacore T-200; TFPI immobilised on CM5 chip, IgG as analyte
Method: 10 mM of glycine-HCl (pH 1.5) was run at a flow rate of 30 μL/min for 30 seconds, thereby inducing the dissociation of the antibody associated with the TFPI. The affinity in terms of kinetic rate constants (Kₒₙ and Koff) and equilibrium dissociation constant

[7] = target: T1, recombinant human TFPI (tissue factor …); test: cell-based or functional assay; remark: listed apart in the source
[8] = target: T1, recombinant human TFPI (tissue factor …); test: cell-based or functional assay; remark: listed apart in the source

- effect of inhibiting TFPI, FXa activity assay, Ab 10 nM [1]: ~83%
- effect of inhibiting TFPI, FXa activity assay, Ab 20 nM [1]: ~82%
- FXa assay % of FXa alone, 2.5 nM Ab, 10 nM TFPI [2]: 11.2%
- FXa assay % of FXa alone, 5 nM Ab, 10 nM TFPI [2]: 50.9%
- FXa assay OD, 2.5 nM Ab, 10 nM TFPI [2]: 0.091
- FXa assay OD, 5 nM Ab, 10 nM TFPI [2]: 0.413
- FXa assay OD, 10 nM Ab, 10 nM TFPI [2]: 0.677
- FXa assay OD, 20 nM Ab, 10 nM TFPI [2]: 0.665
- Kd [3]: 0.074 nM
- % of Normalized, TF/FVIIa/FX complex assay, Ab 1.56 nM [4]: 17.2%
- % of Normalized, TF/FVIIa/FX complex assay, Ab 3.13 nM [4]: 18.7%
- % of Normalized, TF/FVIIa/FX complex assay, Ab 6.25 nM [4]: 21.5%
- % of Normalized, TF/FVIIa/FX complex assay, Ab 12.5 nM [4]: 33.3%
- % of Normalized, TF/FVIIa/FX complex assay, Ab 25 nM [4]: 99.6%
- % of Normalized, TF/FVIIa/FX complex assay, Ab 50 nM [4]: 102%
- % of Normalized, TF/FVIIa/FX complex assay, Ab 100 nM [4]: 102%
- A405, TF/FVIIa/FX complex assay, Ab 1.56 nM [5]: 0.157
- A405, TF/FVIIa/FX complex assay, Ab 3.13 nM [5]: 0.171
- A405, TF/FVIIa/FX complex assay, Ab 6.25 nM [5]: 0.197
- A405, TF/FVIIa/FX complex assay, Ab 12.5 nM [5]: 0.305
- A405, TF/FVIIa/FX complex assay, Ab 25 nM [5]: 0.911
- A405, TF/FVIIa/FX complex assay, Ab 50 nM [5]: 0.935
- A405, TF/FVIIa/FX complex assay, Ab 100 nM [5]: 0.937
B1: clone 3241 (antibody, V domains shown)
VH: EVQLVESGGGLVKPGGSLRLSCAASGFTFSSYAMNWVRQAPGKGLEWVSTITTGGSYTYYADSVEGRFTISRDNAKNSLYLQMNSLRAEDTAVYYCARQDGNFLMDYWGQGTLVTVSS
VL: DVVMTQTPLSLPVTLGQPASISCKSSQSLLDIDGKTYLNWLQQRPGQSPKRLIYLVSKLDSGVPDRFTGSGSGTDFTLKISRVEAEDVGVYYCWQGTHFPFTFGQGTKVEIKR
notes: scFv on yeast at selection; human IgG4/kappa IgG as purified; also called No. 3241 antibody

- TFPI inhibitory activity, FXa activity assay, Ab 10 nM [1]: 72%
- TFPI inhibitory activity, FXa activity assay, Ab 40 nM [1]: 85%
- TFPI inhibitory activity, TF/FVIIa/FXa complex assay, Ab 50 nM [1]: 100%
- TFPI inhibitory activity, TF/FVIIa/FXa complex assay, Ab 100 nM [1]: 100%
- Kd [6]: 0.033 nM
- TF/FVIIa/FXa assay % of 0 nM TFPI, 12.5 nM Ab, 50 nM TFPI [7]: 18.5%
- TF/FVIIa/FXa assay % of 0 nM TFPI, 50 nM Ab, 50 nM TFPI [7]: 102%
- TF/FVIIa/FXa assay % of 0 nM TFPI, 100 nM Ab, 50 nM TFPI [7]: 110%
- TF/FVIIa/FXa assay OD, 12.5 nM Ab, 50 nM TFPI [7]: 0.148 OD
- TF/FVIIa/FXa assay OD, 25 nM Ab, 50 nM TFPI [7]: 0.303 OD
- TF/FVIIa/FXa assay OD, 50 nM Ab, 50 nM TFPI [7]: 0.816 OD
- TF/FVIIa/FXa assay OD, 100 nM Ab, 50 nM TFPI [7]: 0.88 OD
- FXa assay % of FXa alone, 0.625 nM Ab, 10 nM TFPI [8]: 5%
- FXa assay % of FXa alone, 2.5 nM Ab, 10 nM TFPI [8]: 8%
- FXa assay OD, 0.625 nM Ab, 10 nM TFPI [8]: 0.053 OD
- FXa assay OD, 2.5 nM Ab, 10 nM TFPI [8]: 0.078 OD
- FXa assay OD, 10 nM Ab, 10 nM TFPI [8]: 0.71 OD
- FXa assay OD, 40 nM Ab, 10 nM TFPI [8]: 0.832 OD
B2: clone 308-2 (antibody, V domains shown)
VH: EVQLVESGGGLVKPGGSLRLSCAASGFTFSSYAMNWVRQAPGKGLEWVSTITTGGSYTYYADSVQGRFTISRDNAKNSLYLQMNSLRAEDTAVYYCARQDGNFLMDYWGQGTLVTVSS
VL: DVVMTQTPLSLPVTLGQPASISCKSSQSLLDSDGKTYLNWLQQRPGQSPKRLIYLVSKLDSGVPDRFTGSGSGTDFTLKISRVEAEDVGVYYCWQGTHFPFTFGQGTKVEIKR

From patent US20180030151A1 (MOGAM INSTITUTE FOR BIOMEDICAL RESEARCH, published 2018)
